Measured values as given in patent US20230407373A1 (priority 2020, published 2023).
Where two headings read alike, the source gives them in different places.

Tested on: HCoV-OC43 gRNA and sgRNA
Type: binding
Conditions: for target (unweighted spectral count): OC43 Probe II, infected cells; for target (unweighted spectral count) / target (unweighted spectral count, OC43 Probe II capture): tested against no-probe control; for target (unweighted spectral count, OC43 Probe II) / background (unweighted spectral count, no-probe control): type n_48_v, 48 hpi; for target (unweighted spectral count, OC43 Probe II): OC43 Probe II capture on infected cells; for background (unweighted spectral count, no-probe control): no-probe control on infected cells; for target (unweighted spectral count, OC43 Probe II capture): FDR<10%

| Molecule | target (unweighted spectral count) (12 hpi (type n_12_v)) | target (unweighted spectral count) (24 hpi (type n_24_v)) | also measured |
| --- | --- | --- | --- |
| SLC25A5 (protein, UniProt P05141 1-298, looked up) ADP/ATP translocase 2: MTDAAVSFAKDFLAGGVAAAISKTAVAPIERVKLLLQVQHASKQITADKQYKGIIDCVVRIPKEQGVLSFWRGNLANVIRYFPTQALNFAFKDKYKQIFLGGVDKRTQFWLYFAGNLASGGAAGATSLCFVYPLDFARTRLAADVGKAGAEREFRGLGDCLVKIYKSDGIKGLYQGFNVSVQGIIIYRAAYFGIYDTAKGMLPDPKNTHIVISWMIAQTVTAVAGLTSYPFDTVRRRMMMQSGRKGTDIMYTGTLDCWRKIARDEGGKAFFKGAWSNVLRGMGGAFVLVLYDEIKKYT | 6 |  |  |
| RBM39 (protein, UniProt Q14498 2-530, looked up) RNA-binding protein 39: ADDIDIEAMLEAPYKKDENKLSSANGHEERSKKRKKSKSRSRSHERKRSKSKERKRSRDRERKKSKSRERKRSRSKERRRSRSRSRDRRFRGRYRSPYSGPKFNSAIRGKIGLPHSIKLSRRRSRSKSPFRKDKSPVREPIDNLTPEERDARTVFCMQLAARIRPRDLEEFFSTVGKVRDVRMISDRNSRRSKGIAYVEFVDVSSVPLAIGLTGQRVLGVPIIVQASQAEKNRAAAMANNLQKGSAGPMRLYVGSLHFNITEDMLRGIFEPFGRIESIQLMMDSETGRSKGYGFITFSDSECAKKALEQLNGFELAGRPMKVGHVTERTDASSASSFLDSDELERTGIDLGTTGRLQLMARLAEGTGLQIPPAAQQALQMSGSLAFGAVAEFSFVIDLQTRLSQQTEASALAAAASVQPLATQCFQLSNMFNPQTEEEVGWDTEIKDDVIEECNKHGGVIHIYVDKNSAQGNVYVKCPSIAAAIAAVNALHGRWFAGKMITAAYVPLPTYHNLFPDSMTATQLLVPSRR | 6 | 10 |  |
| SLC2A1 (protein, UniProt P11166 1-492, looked up) Solute carrier family 2, …: MEPSSKKLTGRLMLAVGGAVLGSLQFGYNTGVINAPQKVIEEFYNQTWVHRYGESILPTTLTTLWSLSVAIFSVGGMIGSFSVGLFVNRFGRRNSMLMMNLLAFVSAVLMGFSKLGKSFEMLILGRFIIGVYCGLTTGFVPMYVGEVSPTALRGALGTLHQLGIVVGILIAQVFGLDSIMGNKDLWPLLLSIIFIPALLQCIVLPFCPESPRFLLINRNEENRAKSVLKKLRGTADVTHDLQEMKEESRQMMREKKVTILELFRSPAYRQPILIAVVLQLSQQLSGINAVFYYSTSIFEKAGVQQPVYATIGSGIVNTAFTVVSLFVVERAGRRTLHLIGLAGMAGCAILMTIALALLEQLPWMSYLSIVAIFGFVAFFEVGPGPIPWFIVAELFSQGPRPAAIAVAGFSNWTSNFIVGMCFQYVEQLCGPYVFIIFTVLLVLFFIFTYFKVPETKGRTFDEIASGFRQGGASQSDKTPEELFHPLGADSQV | 6 |  |  |
| HNRNPA2B1 (protein, UniProt P22626 1-353, looked up) Heterogeneous nuclear …: MEKTLETVPLERKKREKEQFRKLFIGGLSFETTEESLRNYYEQWGKLTDCVVMRDPASKRSRGFGFVTFSSMAEVDAAMAARPHSIDGRVVEPKRAVAREESGKPGAHVTVKKLFVGGIKEDTEEHHLRDYFEEYGKIDTIEIITDRQSGKKRGFGFVTFDDHDPVDKIVLQKYHTINGHNAEVRKALSRQEMQEVQSSRSGRGGNFGFGDSRGGGGNFGPGPGSNFRGGSDGYGSGRGFGDGYNGYGGGPGGGNFGGSPGYGGGRGGYGGGGPGYGNQGGGYGGGYDNYGGGNYGSGNYNDFGNYNQQPSNYGPMKSGNFGGSRNMGGPYGGGNYGPGGSGGSGGYGGRSRY | 28 |  | target (unweighted spectral count, OC43 Probe II): 86; background (unweighted spectral count, no-probe control): 7 |
| HNRNPF (protein, UniProt P52597 1-415, looked up) Heterogeneous nuclear …: MMLGPEGGEGFVVKLRGLPWSCSVEDVQNFLSDCTIHDGAAGVHFIYTREGRQSGEAFVELGSEDDVKMALKKDRESMGHRYIEVFKSHRTEMDWVLKHSGPNSADSANDGFVRLRGLPFGCTKEEIVQFFSGLEIVPNGITLPVDPEGKITGEAFVQFASQELAEKALGKHKERIGHRYIEVFKSSQEEVRSYSDPPLKFMSVQRPGPYDRPGTARRYIGIVKQAGLERMRPGAYSTGYGGYEEYSGLSDGYGFTTDLFGRDLSYCLSGMYDHRYGDSEFTVQSTTGHCVHMRGLPYKATENDIYNFFSPLNPVRVHIEIGPDGRVTGEADVEFATHEEAVAAMSKDRANMQHRYIELFLNSTTGASNGAYSSQVMQGMGVSAAQATYSGLESQSVSGCYGAGYSGQNSMGGYD | 13 | 27 | target (unweighted spectral count, OC43 Probe II capture) (36 hpi, type n_36_v): 34; target (unweighted spectral count, OC43 Probe II): 34; background (unweighted spectral count, no-probe control): 4 |
| MTPAP (protein, UniProt Q9NVV4 38-582, looked up) Poly(A) RNA polymerase, …: KDLRRDEQPSGSVETGFEDKIPKRRFSEMQNERREQAQRTVLIHCPEKISENKFLKYLSQFGPINNHFFYESFGLYAVVEFCQKESIGSLQNGTHTPSTAMETAIPFRSRFFNLKLKNQTSERSRVRSSNQLPRSNKQLFELLCYAESIDDQLNTLLKEFQLTEENTKLRYLTCSLIEDMAAAYFPDCIVRPFGSSVNTFGKLGCDLDMFLDLDETRNLSAHKISGNFLMEFQVKNVPSERIATQKILSVLGECLDHFGPGCVGVQKILNARCPLVRFSHQASGFQCDLTTNNRIALTSSELLYIYGALDSRVRALVFSVRCWARAHSLTSSIPGAWITNFSLTMMVIFFLQRRSPPILPTLDSLKTLADAEDKCVIEGNNCTFVRDLSRIKPSQNTETLELLLKEFFEYFGNFAFDKNSINIRQGREQNKPDSSPLYIQNPFETSLNISKNVSQSQLQKFVDLARESAWILQQEDTDRPSISSNRPWGLVSLLLPSAPNRKSFTKKKSNKFAIETVKNLLESLKGNRTENFTKTSGKRTISTQT | 4 |  | target (unweighted spectral count, OC43 Probe II capture) (24 hpi, type n_24_v): 4 |
| JUP (protein, UniProt P14923 1-745, looked up) Junction plakoglobin: MEVMNLMEQPIKVTEWQQTYTYDSGIHSGANTCVPSVSSKGIMEEDEACGRQYTLKKTTTYTQGVPPSQGDLEYQMSTTARAKRVREAMCPGVSGEDSSLLLATQVEGQATNLQRLAEPSQLLKSAIVHLINYQDDAELATRALPELTKLLNDEDPVVVTKAAMIVNQLSKKEASRRALMGSPQLVAAVVRTMQNTSDLDTARCTTSILHNLSHHREGLLAIFKSGGIPALVRMLSSPVESVLFYAITTLHNLLLYQEGAKMAVRLADGLQKMVPLLNKNNPKFLAITTDCLQLLAYGNQESKLIILANGGPQALVQIMRNYSYEKLLWTTSRVLKVLSVCPSNKPAIVEAGGMQALGKHLTSNSPRLVQNCLWTLRNLSDVATKQEGLESVLKILVNQLSVDDVNVLTCATGTLSNLTCNNSKNKTLVTQNSGVEALIHAILRAGDKDDITEPAVCALRHLTSRHPEAEMAQNSVRLNYGIPAIVKLLNQPNQWPLVKATIGLIRNLALCPANHAPLQEAAVIPRLVQLLVKAHQDAQRHVAAGTQQPYTDGVRMEEIVEGCTGALHILARDPMNRMEIFRLNTIPLFVQLLYSSVENIQRVAAGVLCELAQDKEAADAIDAEGASAPLMELLHSRNEGTATYAAAVLFRISEDKNPDYRKRVSVELTNSLFKHDPAAWEAAQSMIPINEPYGDDMDATYRPMYSSDVPLDPLEMHMDMDGDYPIDTYSDGLRPPYPTADHMLA |  | 11 |  |
| TRMT10C (protein, UniProt Q7L0Y3 40-403, looked up) tRNA methyltransferase 10 …: MSSKIPAVTYPKNESTPPSEELELDKWKTTMKSSVQEECVSTISSSKDEDPLAATREFIEMWRLLGREVPEHITEEELKTLMECVSNTAKKKYLKYLYTKEKVKKARQIKKEMKAAAREEAKNIKLLETTEEDKQKNFLFLRLWDRNMDIAMGWKGAQAMQFGQPLVFDMAYENYMKRKELQNTVSQLLESEGWNRRNVDPFHIYFCNLKIDGALHRELVKRYQEKWDKLLLTSTEKSHVDLFPKDSIIYLTADSPNVMTTFRHDKVYVIGSFVDKSMQPGTSLAKAKRLNLATECLPLDKYLQWEIGNKNLTLDQMIRILLCLKNNGNWQEALQFVPKRKHTGFLEISQHSQEFINRLKKAKT | 6 |  |  |
